T1: matriptase (ST14) over-expressed in HEK293T cells (human, UniProt Q9Y5Y6 1-855)
T1 construct: also called matriptase-1
T1 sequence: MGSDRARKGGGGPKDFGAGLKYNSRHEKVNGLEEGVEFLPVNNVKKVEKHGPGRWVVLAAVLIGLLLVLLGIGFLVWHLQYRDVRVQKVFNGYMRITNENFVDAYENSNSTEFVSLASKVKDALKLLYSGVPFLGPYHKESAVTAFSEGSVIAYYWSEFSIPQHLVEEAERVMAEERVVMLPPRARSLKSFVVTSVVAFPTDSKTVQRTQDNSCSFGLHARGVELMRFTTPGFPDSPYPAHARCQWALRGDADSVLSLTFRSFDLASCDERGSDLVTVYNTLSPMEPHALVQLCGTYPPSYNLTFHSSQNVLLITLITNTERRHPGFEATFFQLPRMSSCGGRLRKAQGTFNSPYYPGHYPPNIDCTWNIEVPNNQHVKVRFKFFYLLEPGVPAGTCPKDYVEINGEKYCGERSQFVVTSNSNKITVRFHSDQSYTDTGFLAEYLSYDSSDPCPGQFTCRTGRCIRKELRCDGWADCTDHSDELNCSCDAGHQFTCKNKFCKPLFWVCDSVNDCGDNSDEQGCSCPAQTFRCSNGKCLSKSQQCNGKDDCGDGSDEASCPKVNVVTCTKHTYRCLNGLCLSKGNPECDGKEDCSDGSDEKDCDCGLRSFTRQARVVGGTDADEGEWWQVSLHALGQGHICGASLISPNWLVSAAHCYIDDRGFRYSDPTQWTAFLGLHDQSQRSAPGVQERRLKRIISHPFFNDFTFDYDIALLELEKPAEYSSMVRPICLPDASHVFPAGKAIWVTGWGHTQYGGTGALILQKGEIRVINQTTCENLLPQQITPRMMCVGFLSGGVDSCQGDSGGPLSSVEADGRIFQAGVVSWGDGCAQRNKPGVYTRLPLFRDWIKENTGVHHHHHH

T2: mouse TMPRSS6 expressed on HEK293T cells (MoTMPRSS6-(His)6) (mouse, UniProt Q9DBI0 1-811)
T2 construct: stably expressed in HEK293T cells; also called murine TMPRSS6
T2 sequence: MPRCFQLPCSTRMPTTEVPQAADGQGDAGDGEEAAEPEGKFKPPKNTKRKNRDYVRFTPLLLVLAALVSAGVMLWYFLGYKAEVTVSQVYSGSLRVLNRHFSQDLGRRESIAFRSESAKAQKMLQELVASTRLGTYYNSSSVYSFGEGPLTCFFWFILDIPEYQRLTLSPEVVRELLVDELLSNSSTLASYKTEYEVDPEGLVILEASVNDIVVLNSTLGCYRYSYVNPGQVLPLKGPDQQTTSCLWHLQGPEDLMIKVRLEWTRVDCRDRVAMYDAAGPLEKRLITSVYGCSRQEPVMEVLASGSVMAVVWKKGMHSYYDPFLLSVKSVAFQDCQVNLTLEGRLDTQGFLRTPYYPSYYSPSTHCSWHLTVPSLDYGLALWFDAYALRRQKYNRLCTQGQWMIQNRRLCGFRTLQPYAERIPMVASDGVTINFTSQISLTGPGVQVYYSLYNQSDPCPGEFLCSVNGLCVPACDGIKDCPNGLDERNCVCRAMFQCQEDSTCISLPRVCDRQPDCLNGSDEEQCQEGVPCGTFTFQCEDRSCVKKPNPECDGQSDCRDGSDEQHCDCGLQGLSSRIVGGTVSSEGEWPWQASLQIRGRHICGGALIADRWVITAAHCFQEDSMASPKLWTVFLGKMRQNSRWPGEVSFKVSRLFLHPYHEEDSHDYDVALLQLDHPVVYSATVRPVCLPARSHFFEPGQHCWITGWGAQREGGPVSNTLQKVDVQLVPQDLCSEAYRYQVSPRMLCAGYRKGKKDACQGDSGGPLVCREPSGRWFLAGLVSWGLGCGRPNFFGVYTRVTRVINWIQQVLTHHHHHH


Columns and labels:
[1] = biological target: T1, matriptase (ST14) over-expressed in …; experiment: FACS on permeabilized HEK293T cells over-expressing ST14
Excerpt: To determine if anti-TMPRSS6 antibodies bind to homologous matriptases, HEK293T cells over-expressing matriptase (ST14) (SEQ ID NO: 100) (FIGS. 5B, 5E, 5H, 5K, 5N, 5Q), and HEK293T cells over-expressing matriptase-3 (TMPRSS7) (SEQ ID NO: 101) (FIGS. 5C, 5F, 5I, 5L, 5O, 5R) were collected (generated in house). HEK293T cells stably expressing human TMPRSS6 (matriptase-2) (SEQ ID NO:97) (generated by LakePharma Inc as described above, FIGS. 5A, 5D, 5G, 5J, 5M, 5P) were used as a positive control and HEK293T cells (FIGS. 5A-5R) were used as a negative control (as described above). Cells were blocked and permeabilized with dPBS + 3% BSA + 0.1% Tween-20 before incubation with various anti-TMPRSS6 antibodies diluted in dPBS + 3% BSA + 0.1% Tween-20. Cells were incubated with anti-TMPRSS6 antibodies and their humanized variants at a concentration of roughly 1 µg/ml for 1 hr. After incubation, cells were washed with dPBS and incubated with goat anti-mouse IgG conjugated with AlexaFluor-488 (Invitrogen, FIGS. 5A-5I) or goat anti-human IgG conjugated with Allophycocyanin (APC) (Jackson Immuno Research, FIGS. 5J-5R) as a 2° antibody. At last, cells were washed with dPBS and re-suspended with dPBS + 1 mM EDTA, and then subjected to FACS analysis using a NOVOCYTE® Flow Cytometer. Bound antibody was determined by excitation at 488 nm and measurement of emission (FITC-A) at 530 nm (FIGS. 5A-5I) or by excitation at 640 nm and measurement of emission (APC-A) at 675 nm (FIGS. 5J-5R). Results for these assays are shown in histogram plots in FIGS. 5A-5R.

[2] = biological target: T2, mouse TMPRSS6 expressed on HEK293T …; experiment: cell surface ELISA on fixed HEK293T cells expressing mouse TMPRSS6
Method: HEK293T cells stably expressing mouse TMPRSS6 (generated by LakePharma Inc as described above, FIGS. 4J, 4L, 4N, 4P, 4R, 4T) or cynomolgus monkey (generated in house as described above, FIGS. 4K, 4M, 4O, 4Q, 4S, 4U) were fixed with methanol (100%), and washed with dPBS (Dulbecco’s phosphate-buffered saline, Corning Cellgro) before incubation with various concentrations of anti-TMPRSS6 antibodies and their humanized variants diluted in BSA medium (DMEM + 1% Pen/Strep + 10 mM HEPES + 1 mg/ml BSA (Sigma-Aldrich)). Purified mouse IgG (FIGS. 4J-4O) or Human IgG1 (FIGS. 4P-4U) was used as a control. After incubation, cells were washed with BSA medium and then incubated with goat anti-mouse (Invitrogen, FIGS. 4J-4O) or anti-human (Millipore, FIGS. 4P-4U) IgG conjugated with HRP as a 2° antibody. Finally, cells were washed with dPBS to remove unbound antibody and color developed with ELISA liquid substrate (Sigma-Aldrich), followed by stopping the reaction with addition of the same volume of ELISA liquid substrate of 1 M H₂SO₄. Bound antibody was measured by absorbance at OD₄₅₀ₙₘ.

Row | binding result [1] | binding result [2] | Binder
1 | no binding (tested: roughly 1 µg/ml) | no binding | hzMWTx-002Var anti-TMPRSS6 antibody (antibody, human IgG1, kappa, N297A, V domains shown, Humanized variant of MWTx-002, human IgG1/kappa) VH: EVQLVQSGAEVKKPGASVKVSCKASGFNIKDYYIHWVRQATGQGLEWMGRIDPEDAESEYAPKFQGRVTITADTSTDTAYMELSSLRSEDTAVYYCTRGDSMMVTYFDYWGQGTLVTVSS VL: DIQMTQSPSSLSASVGDRVTITCKASQDVSTAVAWYQQKPGKAPKLLIYWAFTRHTGVPSRFSGSGSGTDYALTISSLQPEDFATYYCQQHYRSPWTFGGGTKVEIKR
2 | no binding (tested: roughly 1 µg/ml) | binds | MWTx-001 anti-TMPRSS6 antibody (antibody, mouse IgG2a, kappa, V domains shown, Mouse monoclonal antibody from a hybridoma (ATCC PTA-126759)) VH: QVQLQQPGAELAKPGASVKMSCKASGYTFTSYWITWVKQRPGQDLEWIGNIYPGSGSTYYNEKFKSKATLTVDTSSRTAYMQLSSLTSADSAVYYCAPYDSDYAMDYWGQGTSVTVSS VL: DIKMTQSPSSMYASLGERVTITCKASQDINNYLSWFQQKPGKSPKTLIYRANRLVDGVPSRVSGSGSGQDYSLTISSLEYEDVGIYFCLQYDEFPLTFGAGTKLELKR
3 | no binding (tested: roughly 1 µg/ml) | binds | hzMWTx-003Var anti-TMPRSS6 antibody (antibody, human IgG1, kappa, L234A L235A, V domains shown, Humanized variant of MWTx-003, human IgG1/kappa) VH: QVQLVQSGAEVKKPGASVKVSCKASGFNIEDYYMHWVRQAPGQRLEWMGRIDPEDAETTYSPKFQGRVTIIPDTSANTAYMELSSLRSEDTAVYYCARSIYLDPMDYWGQGTLVTVSS VL: DIQMTQSPKSLSASVGDRVTITCRASQDVTTALAWYQQKPGQSPKLLIYWATTRHSGVPSRFSGSGSGTDFTLTISSLQPEDFATYYCQQHYSTPYTFGQGTKLEIKR
4 | no binding (tested: roughly 1 µg/ml) | binds | hzMWTx-001Var anti-TMPRSS6 antibody (antibody, human IgG1, kappa, N297A, V domains shown, Humanized variant of MWTx-001, human IgG1/kappa) VH: EVQLVQSGAEVKKPGASVKVSCKASGYTFTSYWITWVRQAPGQRLEWIGNIYPGSGSTYYNEKFKSKATITRDTSSRTAYMELSSLRSEDTAVYYCAPYDADYAMDYWGQGTLVTVSS VL: DIQMTQSPSSLSASVGDRVTITCKASQDISNYLSWFQQKPGKAPKLLIYRANRLVEGVPSRFSGSGSGTDFTLTISSLQPEDFATYFCLQYDEFPLTFGGGTKVEIKR
5 | no binding (tested: roughly 1 µg/ml) | – | MWTx-002 anti-TMPRSS6 antibody (antibody, mouse IgG2b, kappa, V domains shown, Mouse monoclonal antibody from a hybridoma (ATCC PTA-126760)) VH: EVQLQQSGAELVKPGASVKLSCTASGFNIKDYYIHWVKERTEQGLEWFGRIDPEDGESEYAPKFQGKATLTADTSSNTAYLQLSSLTSEDTAVYYCTRGDSMMVTYFDYWGQGTTLTVSS VL: DIVMTQSHKFMSTSVGDRVSITCKASQDVSTAVAWYQQKPGQSPKLLIYWAFTRHTGVPDRFTSTGSGTDYALTISSVQAEDLALYYCQQHYRSPWTFGGGTKLEIKR
6 | no binding (tested: roughly 1 µg/ml) | binds | MWTx-003 anti-TMPRSS6 antibody (antibody, mouse IgG2b, kappa, V domains shown, Mouse monoclonal antibody from a hybridoma (ATCC PTA-126761); also called r4K12B (recombinantly expressed version, same HC and LC)) VH: EVQLQQSGAELVKPGASVKLSCTASGFNIEDYYIHWVKERTEQGLEWIGRIDPEDGETTYAPQFQGKATIIPDTSSNTAYMQLSSLTSEDAAVYYCARSIYLDPMDYWGQGTSVTVSS VL: DIVMTQSHKFMSTSVGDRVSITCKASQDVTTAVAWYQQKPGQSPKILIYWATTRHTGVPDRFTGSISGTTYILTISSVQAEDLALYYCQQHYSTPYTFGGGTKLEIKR
